This assay addresses T1, Tsa1^WT-HA (peroxiredoxin Tsa1, single C-terminal HA tag at the endogenous locus) (S. cerevisiae, UniProt P34760 1-196).
T1 sequence (looked up): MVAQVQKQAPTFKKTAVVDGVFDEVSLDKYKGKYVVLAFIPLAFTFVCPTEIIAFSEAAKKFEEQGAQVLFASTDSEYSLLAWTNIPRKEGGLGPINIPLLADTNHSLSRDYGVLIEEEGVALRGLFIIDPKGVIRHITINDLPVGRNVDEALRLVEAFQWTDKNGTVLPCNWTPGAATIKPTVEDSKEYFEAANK
The experiment in a line: in vitro thioredoxin reaction, non-reducing SDS-PAGE with immunoblot.

B1: recombinant Trx1-HIS (enzyme, S. cerevisiae, UniProt P22217 1-103, looked up)
chain: MVTQFKTASEFDSAIAQDKLVVVDFYATWCGPCKMIAPMIEKFSEQYPQADFYKLDVDELGDVAQKNEVSAMPTLLLFKNGKEVAKVVGANPAAIKQAIAANA
As for B1, the binding result is listed as “binds”.

Values taken from publication doi:10.1101/2023.12.13.571451 (bioRxiv, 2023).
